# Changes are numbered by the printed parent chain.
# T1: myoglobin (UniProt P02144 2-154)
# T1 sequence: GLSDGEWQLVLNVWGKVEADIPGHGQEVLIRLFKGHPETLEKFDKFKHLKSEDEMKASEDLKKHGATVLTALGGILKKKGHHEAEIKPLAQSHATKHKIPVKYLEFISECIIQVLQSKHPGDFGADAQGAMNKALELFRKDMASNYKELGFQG
# B1: N24-06 (structured_DNA)
# DNA: ACTAGAACTGATCTACAATTTGGGGGGGTTTTGGGGGGGTTGTTGTTTTCTACATCTCAGCATTCT
# B2: N24-07 (with primer sites) (structured_DNA)
# DNA: B1 DNA with G25T, G33C, G34T, G35T, G36T, T43G, T44G, G45C
# B3: N24-04 (structured_DNA)
# DNA: B1 DNA with G33C, G34T, T40G, T41G, G42T, G45T
# B4: N24-03 (structured_DNA)
# DNA: ACTAGAACTGATCTACAATTTGGGTTGGGGGGGTTTTGGGTTTTTTTTTCTACATCTCAGCATTCT
# B5: N24-01 (structured_DNA)
# DNA: ACTAGAACTGATCTACAATTTAGGCCGGGTGTTGGGTGGGTAGGGTTTTCTACATCTCAGCATTCT
# Key:
# myoglobin [1] = molecular target: T1, myoglobin; test: aptamer blotting
# myoglobin [2] = molecular target: T1, myoglobin; test: aptamer blotting; remark: listed apart in the source
# myoglobin [3] = molecular target: T1, myoglobin; test: aptamer blotting; remark: listed apart in the source
# myoglobin [4] = molecular target: T1, myoglobin; test: aptamer blotting; remark: listed apart in the source
# myoglobin [5] = molecular target: T1, myoglobin; test: SPR
# myoglobin [6] = molecular target: T1, myoglobin; test: absorption spectroscopy
binder,measurement,setting,value
TTTTTTTTTTTTTTTTT (ssDNA) [T17],binding result,myoglobin [1],binds
GGGTGGGTTGGGAGGG (structured_DNA) [PEA1-20],binding result,myoglobin [2],binds
B1,binding result,myoglobin [3],binds
B2,binding result,myoglobin [3],binds
B3,binding result,myoglobin [3],binds
GGGAAGGAGGGAGGAAGGGAGGGAGGG (structured_DNA) [aFGF-PQS20],binding result,myoglobin [4],binds
B4,binding result,myoglobin [3],binds
GGGCCGGGTTGGGTGTAGAGTGGG (structured_DNA) [PEA1-02],binding result,myoglobin [2],binds
GGGCGGGTTGGGCTGGG (structured_DNA) [PEA3-01],Kd,myoglobin [5],5.8 nM
GGGTGGGTTTTCTTTGGGTTGGGC (structured_DNA) [N24-07 core],binding result,myoglobin [6],binds
GGGATAGGGTTGGGCACTCACAGCTGAATGGG (structured_DNA) [PSA-PQS2],binding result,myoglobin [4],binds
GGGCCGGGAGGGTGCAGGG (structured_DNA) [Annexin II-PQS],binding result,myoglobin [4],binds
GGGTGGGAGGGAGGG (structured_DNA) [PEA1-13],binding result,myoglobin [2],binds
B5,binding result,myoglobin [3],binds
GGGCCGGGAGGGAGGG (structured_DNA) [PEA1-19],binding result,myoglobin [2],binds
GGGAAGGGTTGGGAGGG (structured_DNA) [PEA1-16],binding result,myoglobin [2],binds
GGGTGGGTTTCTTGGGAGGG (structured_DNA) [PEA1-11],binding result,myoglobin [2],binds
GGGTGGGAAGGGTTGGG (structured_DNA) [PEA1-06],binding result,myoglobin [2],binds
GGGTGGGGGTGGGTTTCTTGGGGTGTAAAGTGGG (structured_DNA) [HER2-PQS3],binding result,myoglobin [4],binds

# Reference: article PMC8216272
